US20220119522A1
Residue numbers refer to the chain shown, from its start.

B1: CL0020123 (antibody, V domains shown)
VH: EVQLQQSGAELVRSGASVKLSCTASGFSIEDFYIHWVKQRPEQGLEWIGWIDPENGDSKYAPKFQGKATMTADTSSNTAYLHLSSLTSEDTAVYYCHADHGNYGSTMDYWGQGTSVTVSS
VL: DIQMNQSPSSLSASLGDTVTITCHASQHINVWLSWYQQKPGDHPKLLIYKASNLHTGVPSRFSGSGSGTGFTLTISSLQPEDIATYYCQQGQTYPRTFGGGTKLEIK
B2: CL0020120 (antibody, V domains shown)
VH: EVQLQQSGPELVRTGASVKISCRASSYSFTDNYIHWVKQTHGRSLEWIGYISGYTGATSYNQKFKGKATFTVDTSSSTAYMQFNSLTSEDSAVYYCARSTMIAPYGMDYWGQGTSVTVSS
VL: DIVMTQSHKFMSTSVGDRVNITCKASQDVVTAVAWYQQKPGQSPKLLIYWASTRHTGVPDRFTGSGSGTDFTLTISNVQSEDLADYFCQQYSRYPLTFGAGTKLELK
B3: CL0020201 (antibody, V domains shown)
VH: EVQLQQSGPVLVKPGASVRMSCKPSGYTFTDYYMNWVKQSHGKSLEWIGSINPYTGGSSYNQNFRGKATLTVDKSSSTAYMELNSLTSEDSAVYYCARGSYYSNLGFAYWGQGTLVTVSA
VL: DVQLTQSPSFLTASPGETITINCRASKSISKYLAWYQEKPGKTNKLLISSGSTLQSGIPSRFSGSGSGTDFTLTISSLEPEDFAMYYCQQYSEYPFTFGSGTKLEIK
B4: CL0020127 (antibody, V domains shown)
VH: EVQLQQSGPVLVKPGASVKMSCKASGYKFTDYYMNWVKQSHGKSLEWIGTINPYSGGISYNQKFKGKATLTVDKSSSTAYMELNSLTSEASAVYYCTRRNWDGRYAMDYWGQGTSVTVSS
VL: B2 VL with N20S, V30S, D85E, R93S, L96F, A100G, L106I
B5: CL0020109 (antibody, V domains shown)
VH: EVQLQQSGPVLVKPGASLKMSCRASGYTFTDYYVHWVKQSHGKSLEWIGLINPYTGTTSYNQRFKGKATLTVDKSSSTAYMEVNSLTSEDSAVYYCARSRVYYGSSLFAFWGQGTLVTVSA
VL: DIVMTQSPSSLSVSAGEKVTMSCKSSQSLLNSGNQKNYLAWYQQKPGQPPKLLIYGASTRESGVPDRFTGSGSGTDFTLTISSVQAEDLAVYYCQNDHSYPYTFGGGTKLEIK
B6: CL0020215 (antibody, V domains shown)
VH: QVQLQQPGAELVKPGASVKMSCKASGYTFTNYWIMWVKQRPGQGLEWIGDIYPSSGSTNYNEKFKNRATLTVDTSSNTAYMQLSSLTSEDSAVYFCSREGYGISAWGQGTTLTVSS
VL: QIVLTQSPAIMSASPGEKVTITCSASSSVSYMHWFQQKPGTSPKLWIYSTSNLASGVPARFSGSGSGTSCSLTISRMEAEDAATYYCQQRSSFPLTFGAGTKLELK
B7: CL0020173 (antibody, V domains shown)
VH: EVKLLESGGGLVQPGSSMRLSCAASGFTFTDFYMNWIRQPAGRAPEWLGFFRNIVDGYTTEYNPSVKGRFTISRDNTQNMLYLQMNTLRAEDTATYYCARSGYSSYIYGGTFAYWGQGTLVTVSS
VL: ETVMTQSPTSMSTSIGERVTLNCKASQSVGIHVDWYQQTPGQSPKLLIYGASNRHTGVPDRFTGSGFGRDFTLTISNVEAEDLAVYYCLQYGSIPWTFGGGTKLELK
B8: CL0020195 (antibody, V domains shown)
VH: EVQLVESGGGLVQPGRSMMLSCSASGFTFSNYHMAWVRQAPTTGLEWVASITTGSGNTYYRHSVKGRFTISRDNAKSTLYLQMDSLRSEDTASYYCARRWYGGYEGYYFDYWGQGVMVTVSS
VL: DIQMTQSPSLLSASVGDRVTLSCKAGQNVNNYLAWYQQKLGEAPKLLIYNANILQTGFPSRFSGTGSGTDFTLTISSLQPEDVATYFCQQYNSWTTFGGGTKLELK
B9: CL0020186 (antibody, V domains shown)
VH: EVQLVESGGGLVQPGRSLKLSCPASGFTFSYYGMAWVRQAPTKGLEWVASISTGGGNTYYRDSVKGRFTISRDNAKNTLYLQMDSLRSEDTATYYCARGDIGTAYWFTYWGQGTLVTVSS
VL: NIQLTQSPSLLSASVGDRVTLSCKGSQNINNYLAWYQQKLGEAPKLLIYKTNSLLTGIPSRFSGSGSGTDYTLTISSLHSEDLATYYCYQYNNGWTFGGGTKLELK
B10: CL0020205 (antibody, V domains shown)
VH: B5 VH with L18V, R23K, K65R, G66V
VL: B5 VL
B11: CL0020206 (antibody, V domains shown)
VH: B4 VH with K28T, T50I, T69I
VL: B2 VL with N20S, C23Y, V30G, T31S, A51T, R93S, L96F, A100G, L106I
B12: CL0020111 (antibody, V domains shown)
VH: B6 VH with E10D, M35T, K38Q, S54G, S57N, K65R, N66S, R67K, F95Y
VL: B6 VL with I10F, S24R, Y48F, C70H, S92G, F93Y
B13: CL0020214 (antibody, V domains shown)
VH: QVRLQQSGAELVRPGSSVKLSCKASGYAFSSYWMNWVKQRPGQGLEWIGQIYPGDGDTNYNGNFKGKATLTADNSSSTAYMQLSSLTSEDSAVYFCARRRNGDFGDYAMDYWGQGTSVTVSS
VL: QIVLTQSPAIMSASPGEKVTISCSASSSVSYMCWYQQKPGSSPKPWIYRTSTLASGVPARFSGSGSGTSYSLTISSMEAADAATYYCQHYHSYPFTFGAGTKLELK
B14: CL0020161 (antibody, V domains shown)
VH: EVQLVESGGGLVQPGRSMKLSCAALGFTFSNYYMAWVRQAPRKGLEWVASISTGGDNTYYRDSVKGRFTISRDNAKSTLYMQMDSLRSEDTATYYCVRSFIVGTTGYYFDYWGQGVMVTVSS
VL: DIVLTQSPALAVSLGQRATISCKTNQNVDYYGNNYMHWYQQTPGQQPKLLIYFASNLASGIPARFSGRGSGTDFTLTIDPVEADDTATYYCQQSRNLPTFGGGTKLELK
B15: CL0020313 (antibody, V domains shown)
VH: QVQLKQSGPGLLQPSQSLSITCTVSGFSLTSYGVHWVRQSPGKGLEWLGVIWSGGITLYNAAFMSRLSITKDNSKSQVFFKMNSLQADDTAIYYCAKVGYGSSSDYWGQGTTLTVSS
VL: DVLMTQSPLSLPVSLGDQASFSCRSSQSIVHSNGNTYLEWYLQKPGQSPKLLIYKVSNRFSGVPDRFSGSGSGTDFTLKISRVEAEDLGVYYCFQGSHVPFTFGSGTKLEIK
B16: CL0020113 (antibody, V domains shown)
VH: QIQLVQSGPELKKPGESLKISCKASGYTFTDYAMQWVKQAPGKGLQYMGWINTQTGKPTYADDFKERFVFSLETSASTAYLKINNLKNDDMATYLCARSYGGEYNWIAYWGQGTLVTVSS
VL: DIVMTQTPSSQAVSAGEKVTMNCKSSQSLLYNENKKNYLAWYQQKPGQSPKLLIYWASTRESGVPDRFIGSGSGTDFTLTISSVQAEDLAVYYCQQSYNFPPTFGGGTKLELK
B17: CL0020162 (antibody, V domains shown)
VH: QIQLVQSGPELKKPGESLKISCKASGYTFTDYAMQWVKQAPEKGLQYMGWINTQTGKPTYADDFKERFVFSLETSATTAYLQINNLKNEDMATYFCVRSYNNYENWFAYWGQGTLVTVSS
VL: DIVMTQSPSSLAVSAGETVTINCKSSQSLLYSGNQKNYLAWYQQKPGQSPKVLIYWASTRQFGVPDRFIGSGSGTDFTLTISSVQAEDLAIYYCQQYYNSPITFGSGTKLEIK
B18: CL0020210 (antibody, V domains shown)
VH: QIQLVQSGPELRKPGETVKISCKASGYTFTTYGMSWVKQAPGKGLKWMGWINTYSGLPRHSDDFKGRFAFSLETSASTAYLQINNLKNEDTATYFCAREVYYGSRKTAWFAYWGQGTLVTVSA
VL: DLVMSQSPSSLAVSVGERITMTCKSSQSLLYSNDQKNYLAWYQQIPGQSPKLLLYWASTRESGVPDRFTGSGSGTDFTLTISSVKAEDLAVYFCQQYYNYPPTFGAGTKLELK
B19: CL0020103 (antibody, V domains shown)
VH: EVQLQQSGPELVKPGASVKISCKTSGYTFTEYTMHWVKESHGKSLEWIGGINPNKGGSSYNQKFKGKATLTVDKSSSTAYMDLRRLTSEDSAVYYCARGGYEYYALDYWGQGTSVTVSS
VL: DIVMSQSPSSLTVSVGERVTMSCKSSQSLLYSRNQKNYLAWYQQKPGQSPKLLIYWASTRESGVPDRFTGSGSGTDFSLTISSVKAEDLAVYYCQQYYSYPPTFGGGTKLEIK
B20: CL0020164 (antibody, V domains shown)
VH: EVKLLESGGGLVQPGGSLRLSCAASGFTFTDFYMSWIRQPPGKAPEWLGVIRNKANGFTTEYNTSVKGRFTISRDYTQNILHLQTNTLRAEDTAIYYCARLTYGFDYWGQGVMVTVSS
VL: DIVMTQGALPNPVPSGESASITCQSSKSLLHSNGKTYLNWYLQRPGQSPQFLIYWMSTRASGVSDRFSGSGSGTDFTLKISSVEAEDVGVYYCQQFLELPFTFGSGTKLEIK
B21: CL0020139 (antibody, V domains shown)
VH: EVQLQQSGPELVKPGASVKMSCKAPGYSFTSYLMNWVKQKPGQGLEWIGYINPYSAGSNYNEKFKDKATLTSDKSSSTAYMELRSLTSEDSAVYFCARSSYRYGFDYWGQGTTLTVSS
VL: DIQMTQSSSSFSVSLGDRVTITCKASEDIYNRLAWYQQKPGNAPRLLISGATSLETGVPSRFSGSGSGKDYTLSITSLQTEDVATYSCQQYWSTPWTFGGGTKLEIK

molecular target: mouse TREM2 truncated stalk peptide (aa 149-163) (mouse) (UniProt Q99NH8); assay: ELISA on biotinylated peptide captured by streptavidin; A450 normalised to isotype control

| Binder | fold over background (A450) |
| --- | --- |
| B1 | 0.9 fold |
| B2 | 1.2 fold |
| B3 | 1.8 fold |
| B4 | 1.2 fold |
| B5 | 1.7 fold |
| B6 | 1.2 fold |
| B7 | 1.2 fold |
| B8 | 1.2 fold |
| B9 | 1.3 fold |
| B10 | 1.1 fold |
| B11 | 1.6 fold |
| B12 | 1.5 fold |
| B13 | 1.3 fold |
| B14 | 1.1 fold |
| B15 | 1.1 fold |
| B16 | 1.3 fold |
| B17 | 1.4 fold |
| B18 | 1.6 fold |
| B19 | 1.8 fold |
| B20 | 1.5 fold |
| B21 | 1.6 fold |
